This data set is described as follows: protease stability score; higher = more stable; yeast display proteolysis, trypsin and chymotrypsin.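 Further: relative to predicted unfolded state with 0 unfolded-like and 1 meaning tenfold more protease.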
“SESEEASEWVIKIWRDTMETGDEKTLNHLLDPSVRLVVNGQEIHGRESMIKEFRRFKNVKLHDIKHHDIDMIGDKIIIHGTIHGEINGREVTVEQEIISIKVNGKWLTRSLILH” came in with a protease stability score of 1.64.
The value for “SESEEASREAIHLMIESWRTGNEHILDRLMDPNVRNRIDGRDLIGRENFLEVLRHLEEKMGIDHIEFDTERVRWVGDKAESDTRFETVYNGKNVEISTKVHWEKVNGRWHIREIRFH” was 1.17; that for “SESEEDAHKASREITHMLYTGNEELWSTLADPNTRIVINGVEVHGREQVVRVIRELLRRFGVDKVHSELRTVDVQGEKVEIHSHYVQGDKSYDIILVMNKIDGRWHLQRQSIR” was 1.18; that for “SESEEDFRWFMHVLLKTFLTGDEDEFDSLIDPNVRLIVNGKDTHGWEVAVKFVRRFDHLDLYVRESEIQGDKVESDTELIVNFNGVSIKHKTRVIAEKVNGRWILREMRIG” was 1.44.
In the case of “SESEEEARKVIERLFRAERTGDEDDVKHLLDPNVKIDWNGRKYHGRDDWAHYISHLGIDHSELIIKHLEYQGDKLRLHGILRYVIGDKTIEEEVFEHMQKINGRWRIREIHIK”, the protease stability score is 1.64.
“SESEEEARRKSEVFLRHLRTGDFREFIKLADPHVLNIFPGVNHVGREHWRRLELHLRRREFRVHDERLDIQGDKVRINIDLETDVEFDGKELKFRTLILIEAEKVDGRWRVTEVSEEPR” returned a protease stability score of 0.524.
In turn, “SESEEFAREFLEHMEKFLRTGNWEEMKRNADPNVLLRIGDKHLHGREEYEEWLRKFLEHMRIREVEVKDLKIVGDKIFLIIRIRIHFDGREDQLDTILVMQKVDGRWIVTEIRVR” yielded a protease stability score of 1.21.
For the sequence “SESEEFLEKAYRLIEESLRTGDFREMLSNIDPNARFRYGNFDFHGRENLEFMLKELSKRIDHFHNSHIRRVNVINGRMHLHTSMHVEYDGKKEEVETEWVLLKVDGQWLIKEVTVI”, the protease stability score is 2.51.
The value for “SESEEHSKKLFDTWVHSELTGDERSLLHLMDPHVKFIIDGREIHGREKASEFLVKLREHLGAEIHDYRVRDMKIQGEKVIIHSELDVQVDGVRHHERLVLIMHKIDGQWSVESVKRV” was 1.08; that for “SESEEIAHNFTELLIKTLNTGDEKLYRELADPNARIEINGVELVGWKKANELLQRIDHERVRRVKLKDIEVQGDKVIVRTHEEREINIGDKRLHIRTDVEIIWVKINGKWILHEISVH” was 1.23.
In turn, “SESEELAEHWFELLIRSILTGDEDTLRRLMDPDVKIQVGDKEWHGREEYIRMVLEFSHLYKNVKLHFRIRSVVDIDGRLTVDTEIINSFDGREYRIDTRLHVDKYDGVWVAKHLIYS” registered a protease stability score of 1.39.
As for “SESEHKAREMIRLIEHFLITGDEESWHRLFDPHTRVVIDGREIHGMEIYNHWLKELRIRDSHIHIRTIEDINGRINIHGELQLHGIINGQTHDFRSHIDLHVLKFNGRWHMETYIIS”, the figure is 1.57; as for “SESEHLLHTAHELVLRLQETGDWDEIIELADPNVRMEIGDKEIHGREEFERWSREMRFEHVEIHDMRVQGNKADLDGRMRGHFNGRTIDTRVKIIFHKVDGRWLITSYHVK”, 1.18.
As for “SESEKASEIATKELEEVEKTGDEKTIEDYMDPNTRLHINGVDLHGMENFLEFWHRLLRKLGFESTSFHLKSSRIQGNKIKMHSIIHVKQGEKDISFDVEYIALKFNGRWIEESMSSK”, the figure is 1.32.
As for “SESERATRHALRLLWDILLTGDEETWEKMADPNVRVEIGNFHDHGMDSMRLLFHLLLERIDHIHDFTVRHSHSQGDKVENHTEIEVRQGDKSLNITTVFVYVKINGRWINKRVIFK”, the figure is 0.999.
Sequence “SESERYIHEAERHLIEKLRTGDWDDMSRLLDPHVRLDVNGQEFHGWHRVSDTMRRFGFKHVDVEDTHINEDELRSHLRSRVDGVHFELHIQMRKVNGRWFFKNLEFK” showed a protease stability score of 1.15.
As for “SESHDLLEEFVRLILHLWRTGDEEILHNMADPNTQMHIGDKTYHGREEAVDVIHKLLKHLRFKHLHIDHIDIQGDWVRITGHLHVKVDGREIQREVSSVVIKINGRWILRSERID”, the figure is 2.27; as for “SESHHLAKHVVHLFMHAVSTGDEKLLRELLDPDVRVDINGVELIGMEDFQKWLHEWREHMHDSKVHRVRDYNGVLESDVKVRRVLIVDGVRLEEETHSEVIIVKINGRWHVKHVRYR”, 1.26; as for “SESHNFFKWALEVLLLSLRTGNERHLETLADPNMRVYINGREHHGRQMYFEMVFRWIEKFPNIQIHIHIEDTRVQGDKVHVDGEYQERFNGKTFVEKVHIIMLKIDGKWVLERDEII”, 1.6.
With “SESKEFIKRFTEEILKNTLTGNEDRYEELLDPNVRVEVGDKEHHGREEALEFLHRIWRELRTKHIVLRDMRIIGDKAEVEYEVRVEVNGVELHMTRRMEIVVIDGRLKAVKLEHT”, the protease stability score was determined as 1.24.
The value for “SESKHDLIRIFEERSEAHETGDEDFIMELIDPHVKIIIGDKTFHGREKYLEWEKLFGVKHVHFHVKDVRFQGDKVHVNGILRIRVGDKHEEFQVHILITKVNGVWIIKEIEIN” was 1.35.
“SESLEFATKLLEILTHLMYTGDEEDLRHLLDPHVRILFNGKYFHGMEFLMEIYKHWRIQEVRVRFRDVRDVDGRIFVRGEEENVGTINGKRDIVWSHITLIAEKVDGRWVVKEIRIE” returned a protease stability score of 1.88.
As for “SESQEVLEMAIRIWRHTVKTGDEREIAELMDPHVRIEVGDKEFIGRELVSHWFLRFSEHMRIHDIEIKRYHVVGNKAHIHTVVDGEVDGKRDYTEVELIVEKVDGRWLIRSMKIR”, the figure is 2.49; as for “SETDEDFKRLVEEFIRLFLTGDEDQLLELHDPNTRVEVGDFEEHGMEKWSRFLEEERRRVKGLKLVREDEKIEVQGNKLHLILHGAIEFDGVRLFTRIIVHAEKVNGKWVIRRFKMETR”, 1.54.
As for “SETDELLRQLAEFHRETLETGDFHTLWHLLDPHVRLDYNGQKMHGREHFARFWLELLTELRIHFRVRDIRTQGNKAHNRGEIIIHYDGRLRIIDSEIEIIVVNGKVTEVRHTIN”, the figure is 0.837.
As for “SETDESSRVASELMREWLETGDEEVISELADPHVRFDWNGRRDIGRHSYLEFMHMLRRHMGIKHIEFKRIEVHVINGVVHVNITGILHFNGVQLTTHIHIHAEKIDGRWILKQSHYDTE”, the figure is 0.751; as for “SETEEAATLMLRMLIETIYTGDEETYKRLADPHVKVRIGDKTFHGREQVIERLHRTWKEMRIEDVEVQDMRYQGDFIRNRTHILLHQGEYRHRFDVEIIVFKFNGQWILTSQHFH”, 1.11.
As for “SETEEAVKKVTHDLWHALLTGDEEIIRDLFDPHTKILINGVELHGMDEHKDFLDRFDHIHVHDRRIETVIVQGDKAISIGHIHVRFEYGDKHVSVHSEQRLIITKIDGKWIIRFVEIG”, the protease stability score turned out to be 1.22.
The value for “SETEEEAERFEKILLHYRKTGNEDDLLNFIDPHVRIHQGDKEIHGRELYLELMRRWKEIAGHDFFFMNIHDVEIQGEKAIIDGRLFVNGVHHKIKVIFKKINGRWIVESEHIH” was 0.889; that for “SETEEEARKMIELLVEAWLTGDEHTLERMLDPHVKIIIDGRELHGWKVLAERIKHLRYEHFEFELHSVETQGDKIIIRGIVRSDLRVGDKEEHTHLEVIIIITKVNGRWVVHSIEIR” was 1.68.
In turn, “SETEEITERWLRLALEALRTGDFEFISRLADPHVRSEYNGVEFIGREEMVRFEEERLERLGATPSDLITRDVEFQGNKVIIHQEMEMRVGDKRHTNETTIFSHKFDGRWILHSIKFH” yielded a protease stability score of 0.984.
The value for “SETEELASKVTKEFKRVLETGDWRVSLNLLDPDTLLEINGVEFHGREAWEEFNERFKNVKIHFIERDMKIVGNKIKIEGHLEDRWNGQSTHREMHLVFDKVNGRWFNRSVHFG” was 0.57; that for “SETEENAEHVVREWFEMITTGDEDEVLRLMDPHVRVRIGDKIIHGREIFLAHMRHWRIKNKHFEIEHMHFYGDKAVLDGRLVGEETVDGKHRTYDRRVDFNLVKIDGKWHIREFHVD” was 1.52.
As for “SETEESLRRYIEDWLTALSTGNEDTLKRLMDPSTRVTVDGVEYHGRSALEEFIKRVDVIHRSDRHDFKIQGEKVHVDVRMDVHIDGQKHTLHSHWLILKINGRWVIHELIFE”, the figure is 1.99; as for “SETEETSRHLMEMFEKSMLTGDEEHYKRMADPNVRMHINGQEYVGWEDFTRILREIRTEEVRFKVKRYDLVGEYLHVDLRIERDTHVNGVKVEFRTEAELIVVKVDGRWIVKEVRIK”, 1.27.
Take “SETEETVRRFFELLMKLEHTGNEEAIEKLFDPNMKWHQGEKERHGRETFSRMVSELRIHDFRLHRIEIYGDKAIIEGSVDGNFNGQRSEVEVTIHLEKIDGRWFIHSIHLS”: the protease stability score amounted to 1.15.
As for “SETEEWQHQILEILERIQKTGDPHEFMHNADPHVRLHVNGRDFHGMELFKEMFEKFGAKVSHLRDVDIQGDKIHVDGELEFNGVTHKSHVDARKVDGRWVLTRYTIK”, the protease stability score stood at 0.415.
In turn, “SETEHYSQKLLDLIVKAMRTGDEEMFERLLDPNTRELVDGQELHGREEWHHLWHRIDHLRIDHSEISHVNPIGEFIVVHMRVRMTLHINGKIHHYETEVIIIILKIDGRWLMHEVRFH” returned a protease stability score of 0.647.
As for “SETEKELHEFFRLWIQLFLTGDFDELKHYIDPNVRSVINGRQLIGMEEVWRWREEARIKDIEIKDVRVQGDKIEADGVLEGTINGVDRRTDTHIQLNVVNGVAKHTFIRIR”, the figure is 1.45.
The value for “SETEKFAEIALKLWIRRLRTGDEHEESMLADPNTLYVQGDKNIHGMERISRFFKEILTRHGITFNHFHLEHIEVQGNKVRLDLRVDGEFDGQRMNQEVELISIKVDGRWFLESVIIR” was 1.62; that for “SETEKHLQDIADILVHAEITGDEETLNKMLDPDVRMHNEVNGREYHIHGREEVLKHWREWVTRFKGARIDIEDVHIINGVVHVNMKIIFNGRRIESRLDVEVVNGRVRTIRIHER” was 2.15; that for “SETEKLLHEILEKLIRNEATGNFENIEQLLDPHYRVEIGEFEMHGMEEIIRWLNWVKREMRIKRRHIRTMTWQGDKALVDTELHIQVNGQHIRLDEYIVVLIINGRVKEVRVEHR” was 0.943.
As for “SETERKVREVLRLLDESLTTGDEREFRHLFDPNARLEIGDWEIHGMEIIDRLLHEIRIEVNDSKVRRIRIQGDKVEVHTRVDLKFNVDGVTERHDRDQHLLILKVNGRWLIKNFYIE”, the figure is 1.1.
“SETERYNEELLTKWFHAEHTGNFEMLQRLIDPHARIDINGVEHIGWRQFTKSLEDFGIDHIHHLKIDHFRVFNGRLFIDVTTDGTINGQRHKTKVLIRIVLYNGVIHEMSIEWV” displayed a protease stability score of 1.33.
“SETHEILERIMRMILEILYTGDEESMSRLLDPHVKLVVVIGDKELHLHGRENALRWLVHWRIEDYRLRRYTVQGDKAHVDTESTGNYNGQREESRFSLHVKVINGKIHNMKFEFE” returned a protease stability score of 2.56.
As for “SETHKHWEEVARIIIKALETGDFRLFHKLLDPNARLHHDIGDKRVNNVGREEVVRTLKMWIDRFPNVTIELKDMRVIDGVVHHDESLNINGVTVRVHIEIIVFDGKLEEMRIEYR”, the figure is 1.23; as for “SETHMESKIASEIFSDIMHTGDFRTLLRYADPHVRYIVGDKTMHGREIMVEEFKELWKTWGVDRVEVRIEDIKVIGEKVEIHGTLIIGEKTLRVVVISTKVNGQWIQDTFNVDEK”, 0.838.

The record behind these values is the NTF2 design screens of Basanta et al. (2020).
